According to the supplement of paper PMC12042874:
± gives the uncertainty stated by the source.

Test: amyloid nucleation score (Sup35N fusion, yeast selection) (log enrichment); library NNK2; higher = more nucleation; inactive = no reads after selection
Outline: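 On medium lacking adenine and uracil, psi-negative yeast expressing peptides of 20 random codons fused to Sup35N were grown 7 days at 30°C after a 24-hour induction with 100 μM copper sulfate. Illumina sequencing of input and output plasmid inserts gave the reads, and sequences under 100 input reads were excluded. The nucleation score is the DiMSum log enrichment of output over input reads, centred on the mode score of non-aggregating sequences.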

| Substance | amyloid nucleation score |
| --- | --- |
| QVLFVRFRRYVYQRMWACWG | 0.405 ± 0.74 |
| QVLLFQWLSGDYQMIKMMRW | -0.207 ± 0.45 |
| QVLLGTLHKVY | 1.4 ± 0.49 |
| QVTSCGSWWSRSIWYEVVFS | -0.622 ± 1.1 |
| QVVFQGLFFYVGCSGHICRY | 7.67 ± 0.062 |
| QWRINSRLFG | -0.266 ± 0.22 |
| QWTHERSEPWHCSDVRSFIE | 5.757 ± 0.044 |
| QWVIKFIHRQIVVPFKFAGI | -0.385 ± 0.8 |
| QWVVTRDFVE | -0.041 ± 0.63 |
| QYPDSCS | -0.381 ± 0.79 |
| QYVDWLLYGLRDCYWYRRVY | 0.192 ± 0.3 |
| RACFHHIIGDCCYASFN | 8.757 ± 0.05 |
| RAHVYSSKDP | 5.92 ± 0.059 |
| RALEIALMLSTTCKSGFRRE | 5.56 ± 0.06 |
| RALVYVWACSVLLDNCTSRH | -0.935 ± 1.1 |
| RANKYVASRFVITFKVACFE | 0.092 ± 1.1 |
| RAPFLKMCL | -1.22 ± 0.75 |
| RARPC | inactive |
| RATISLVDMEFSLRDPQ | inactive |
| RATKGAPN | 0.858 ± 0.28 |
| RAVHARYLL | 1.86 ± 0.15 |
| RAWHPFDGEYNIVFSHIVLK | -0.525 ± 1.1 |
| RCCFAARMYYGHTLASAVIR | 1.38 ± 0.3 |
| RCERWCPWNFHNQAL | 0.449 ± 0.51 |
| RCFMGVA | 0.276 ± 0.65 |

| Substance | amyloid nucleation score |
| --- | --- |
| RCGFNLFTS | -0.883 ± 0.76 |
| RCLSKVLSLL | -1.72 ± 0.54 |
| RCNIWCHFPVCRAINIMLQA | -0.147 ± 1.1 |
| RCRFPVVIKQRDLVKEVMV | -0.222 ± 0.46 |
| RCRPLCI | -0.299 ± 1 |
| RCSDVTDFNKM | 0.122 ± 1.1 |
| RCSSRPCDLCVTEWIRRMEG | 0.357 ± 0.45 |
| RDALCVHWVAYIGNKHGWVA | 0.965 ± 0.17 |
| RDGLVQMDVVLINVRVEVVC | -0.13 ± 0.76 |
| RDKPPVSKYTSRTREFMLVR | 0.987 ± 0.39 |
| RDLDY | -1.27 ± 0.75 |
| RDPSTELMISRLARTESCGT | 4.94 ± 0.065 |
| RDQRLCV | -1.18 ± 1.1 |
| RDTVFYILSAWNLSAGSRKA | 3.04 ± 0.089 |
| RDWRANGSCHESSSGLDM | 1.6 ± 0.34 |
| REDRNATLCIVV | 2.67 ± 0.13 |
| REFQWCRSLMRYVRGWLVV | 3.19 ± 0.16 |
| RELKCQCLERVLLRVRQCAM | 6.821 ± 0.056 |
| RELLSLSYSLVMCVVLRV | 0.734 ± 0.18 |
| RELYYRMAVLNQSTTTLYRG | inactive |
| RESGLRFNNYMMRWLHGGRV | -0.072 ± 0.29 |
| RESYMLSYGKILNACQCIVG | 9.12 ± 0.079 |
| RFCWAMYNGFPHK | 4.33 ± 0.059 |
| RFCWC | 7.365 ± 0.042 |
| RFDHMSYRSCPRESEFEVTC | inactive |

| Substance | amyloid nucleation score |
| --- | --- |
| RFDINHCIKRCRFGRLVAEI | 3.12 ± 0.1 |
| RFERISQAKIARTLGLWEML | 0.878 ± 0.17 |
| RFFGTTFYTAMMTRGFETVT | -0.139 ± 0.28 |
| RFHELCV | 0.998 ± 0.74 |
| RFILMNLAIVVDFVGS | 6.92 ± 0.078 |
| RFLAN | inactive |
| RFLCFLPNNYLFSAGFSLVL | inactive |
| RFMFPRTSIVWNASYVVGVL | 2.92 ± 0.11 |
| RFMVTTAGRVLPLLSMRGWA | 4.68 ± 0.061 |
| RFMWLTLSSFQGLAEGLCTF | -0.631 ± 0.76 |
| RFNGN | -0.541 ± 1.1 |
| RFRCTTSSLRGLFWPNTWKK | -0.301 ± 0.76 |
| RFRKSLGALALRRIVGSEAM | 1.53 ± 0.39 |
| RFRRLSIIVILYTASRDLWR | 0.289 ± 0.41 |
| RFSCTKFRGKGLFWMLKCVL | -0.835 ± 0.27 |
| RFSLSMDLLNPYST | 4.15 ± 0.13 |
| RFSVDRSSRELICMLGQFDN | 0.356 ± 0.38 |
| RFTVFRSLKNYSRMHPLIKG | 4.929 ± 0.046 |
| RFYKSNGPRF | -1.28 ± 0.78 |
| RFYTVSRSRLSGMSMYLCRV | -0.294 ± 0.26 |
| RGERVSPNNGTS | 0.87 ± 0.14 |
| RGGRSVRTVNWPSYMMSVPD | -0.076 ± 0.3 |
| RGGTKRGELCDALNHQFSVL | 0.413 ± 0.22 |
| RGRTGRCSAFSQSILNGLRA | -0.181 ± 0.63 |
| RGSVNCGLFLSRKSDASGRG | 0.234 ± 0.57 |

| Substance | amyloid nucleation score |
| --- | --- |
| RGVKDRKRQVQFEKSSRSMA | 0.361 ± 0.21 |
| RHCDLQSRLPSTWYLVRYPC | 0.885 ± 0.74 |
| RHFMLSSTCPEGMNENGTFS | 0.811 ± 0.51 |
| RIIYEAC | -0.865 ± 0.23 |
| RIMSCNQITNIICVL | 4.89 ± 0.078 |
| RIQDLMVLTEGYRRDVIGPG | 0.533 ± 0.56 |
| RISRFCL | 1.52 ± 0.26 |
| RISSSGRP | 2.03 ± 0.082 |
| RITWFVIFIHCCKGLIR | -0.369 ± 0.54 |
| RIVLLLNVYNTREM | 5.04 ± 0.1 |
| RKAMRYVVCDRRPMCYRNSW | 0.752 ± 0.43 |
| RKCSGNAMRSLCSDPVRCVK | 0.669 ± 0.32 |
| RKMGSFNHLSERVSYHCVWL | 3.96 ± 0.052 |
| RKWYGQTSARADVAVS | 0.232 ± 0.25 |
| RLAFSKE | -0.065 ± 0.46 |
| RLASSIRWTTFSSDGRVRIL | 0.783 ± 0.57 |
| RLCRSAPG | 1.3 ± 0.44 |
| RLGIVSSVLVYWLYNYYSVL | inactive |
| RLHEYVSLLRGNQRVAHSRS | 3.893 ± 0.037 |
| RLHPMRSNI | -0.43 ± 0.3 |
| RLKCSYTGSALLGRSLGNPE | 0.29 ± 0.54 |
| RLKLMQFLHLAPIVPAILCC | 0.444 ± 0.35 |
| RLKMEICDLTFPAQLFQTFG | 3.49 ± 0.079 |
| RLLALLGSCYWAGLDVSARI | 3.36 ± 0.097 |
| RLMCVLMGYRGSSGVDCRSA | 0.185 ± 0.27 |

| Substance | amyloid nucleation score |
| --- | --- |
| RLNCACFRADTVGDYLGVRL | -0.158 ± 0.29 |
| RLRVVEPGNACWGQMLG | 0.165 ± 1 |
| RLRVY | -0.781 ± 0.35 |
| RLSSHTVMAWVSCNWGDFTV | 9.919 ± 0.065 |
| RLSVA | 1.24 ± 0.26 |
| RLTDSSTGDFKNL | -1.45 ± 0.61 |
| RLTRALLCFTNKALDQCCST | inactive |
| RLTYCSQFVWTWCCNRAING | 9.062 ± 0.024 |
| RLVRVGYLGRKTQRRSCQKL | 0.686 ± 0.2 |
| RLYHPSQWGDLILCIFVMEA | -0.343 ± 0.62 |
| RLYPLIVQFFMVCKT | 1.48 ± 0.23 |
| RLYSFCGIN | 1.68 ± 0.093 |
| RLYWVGGATGRFD | 2.02 ± 0.19 |
| RMDGNLQGHDDCVNV | 0.773 ± 0.29 |
| RMFDYDSGGNNRICYDYYAN | -1.69 ± 0.61 |
| RMFSIRFMWCFCSRRKPLLG | inactive |
| RMKSFLLNFARNSLCVVRHG | 1.43 ± 0.41 |
| RMLRKSNGS | 0.066 ± 0.3 |
| RMNGRYNLCTATGLVSASWW | 0.09 ± 0.4 |
| RMQVYGDMSKCKDSWFCFRT | 0.703 ± 0.4 |
| RMSHWLSYWVDKS | 0.938 ± 0.57 |
| RMSRVEWIPHVDFYPTHGLI | -0.439 ± 0.63 |
| RMTSHCMNSLIWQKNHGMRV | -0.348 ± 0.65 |
| RMWFVNNLDDWFLPTCLWDR | inactive |
| RNCTRFPWSIM | 0.131 ± 1 |

| Substance | amyloid nucleation score |
| --- | --- |
| RNEQMSPCITWVNYPDYLRT | 0.909 ± 0.6 |
| RNESHVNLLGFMLDRRPDRG | 4.37 ± 0.071 |
| RNFGAVAFWVGWHWVVFSVG | -0.588 ± 0.29 |
| RNGLTFRRTYSAYC | 1.01 ± 0.25 |
| RNIVDISSNVRCWLGRPAIS | 3.27 ± 0.066 |
| RNLDNHRTFFSFRIGLFMWS | 6.13 ± 0.077 |
| RNLGLMVTILSAELFRRCLW | -0.812 ± 0.23 |
| RNSIYMVTYIMVLDRIA | 6.127 ± 0.046 |
| RNSLKARYWWGLSGLLKVW | -1.01 ± 0.55 |
| RNVGDLMSRGSYYSIPSGNL | -1.03 ± 0.41 |
| RPASKTMEDGCGLI | inactive |
| RPGHYRTWYFSGFYSSPCQT | 1.49 ± 0.19 |
| RPGMARVFNAA | 0.673 ± 0.36 |
| RPNAVVFLTDNNVRRSDCWV | -0.639 ± 0.28 |
| RPSSWVVRCE | 0.223 ± 0.41 |
| RPVWDNWLTGFLGMPMWGKT | 0.112 ± 0.43 |
| RQAKPICCHMVLLDSWPKSM | 0.164 ± 0.35 |
| RQEINSYGNTPRRGGPRLRH | -0.093 ± 0.55 |
| RQFLSPNYATECGFQLRVGI | inactive |
| RQIALCGLI | 3.47 ± 0.096 |
| RQLHLVLNRVGWMLWYTH | 0.684 ± 0.26 |
| RQYCIKDSWGSSGQLSVGLR | 2.1 ± 0.17 |
| RRDFWPSVSLGCDFRIRFPR | 2.1 ± 0.12 |
| RRMTCALYVIRWFSVHYFYL | -1.79 ± 0.75 |
| RRRIRVCGSWFSGYN | -0.527 ± 0.5 |

| Substance | amyloid nucleation score |
| --- | --- |
| RRRTEGN | 0.304 ± 0.8 |
| RRRVDSLIFYIKMRVLFNMF | inactive |
| RRSDKLAVLWYSDKRMARWS | -0.582 ± 0.33 |
| RRVGLSGRTKMSG | 0.048 ± 0.55 |
| RRYIMQSWLHATSEFPGCDP | 0.54 ± 0.53 |
| RSAFHCNWLISISSGKVSHM | -0.452 ± 0.55 |
| RSALVGGRHNVVNWVRGSKM | 0.079 ± 0.55 |
| RSAWYTG | -0.203 ± 0.5 |
| RSFIGDNYISLRC | -0.184 ± 0.29 |
| RSGAVQWRQRMGCMPSVCDR | 1.46 ± 0.26 |
| RSGLSVIYLYY | inactive |
| RSHMSRLIVDFNTG | 0.474 ± 0.3 |
| RSIMIRHLKFRARGHTFSVN | 0.143 ± 0.36 |
| RSLCDL | -0.755 ± 0.54 |
| RSLHFFTSMHMCGRCLNRLF | 0.048 ± 0.45 |
| RSLSLLLVFLAMCAIMVPMR | 8.575 ± 0.04 |
| RSRSSFLHIFSSFKHISTR | -0.74 ± 1.1 |
| RSSKTNWWTGEISVPYGYWM | 0.368 ± 0.47 |
| RSSLEKIMIGNFNYVRVKLH | 2.28 ± 0.18 |
| RSSRHLDAYIEAS | 0.877 ± 0.28 |
| RSSSCSNVMMVE | 0.935 ± 0.34 |
| RSSSRASALTRYLSELGKKS | 0.694 ± 0.39 |
